Here are results for 4 molecules from patent US20060222645A1 (LEXICON PHARMACEUTICALS, published 2006).

One experiment addresses T1, His-SUMO-gs4 (mouse, UniProt Q9Z1P8 99-151).
T1 construct: Translated in vitro (RTS E. coli); also called gs4 fragment of mANGPTL4
T1 sequence: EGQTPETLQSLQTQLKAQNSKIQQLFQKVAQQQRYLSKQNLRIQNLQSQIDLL
The experiment in a line: Western blot of in vitro translated fragments. As to the method: (§1) The in vitro translated protein fragments were separated on four SDS-PAGE gels, along with N-mANGPTL4, and transferred to four nitrocellulose blots. The blots were then blocked for 1 to 2 hours with TBS containing 5% nonfat dried milk (TBS-NFDM). After blocking, the blots were rinsed with TBS containing 0.5% Tween-20 (TBS-Tween) four times for five minutes each rinse. The blots were then incubated in TBS-NFDM containing tester antibody (14D12, 15F2, 90B4, or anti-His) overnight at 4° C. The blots were rinsed with TBS-Tween four times for five minutes each rinse and then incubated in TBS-NFDM containing a 1:6000 dilution of HRP-coupled goat anti-mouse antibody (Southern Biotechnology Associates) for 1 hour. The blots were rinsed with TBS-Tween four times for five minutes each rinse and then developed using SuperSignal West Pico Chemiluminescent Substrate (Pierce Biotechnology) as directed by the manufacturer. Alternatively, blots can be developed using the Western Breeze™ Immunodetection Kit (Invitrogen).
(§2) Antibody 14D12 bound only to N-mANGPTL4 in that experiment. […] That result may be due to the fact that 14D12 is a weaker binder than 15F2 and 90B4. See, e.g., Example S and FIG. 33. Antibody 15F2 bound His-SUMO-gs1. […] Antibody 90B4 bound to His-SUMO-gs2 and His-SUMO-gs4.
In general terms: In western blotting, separated proteins are transferred to a membrane and probed.

The target in a further experiment is T2, His-SUMO-gs2 (mouse, UniProt Q9Z1P8 49-98).
T2 construct: Translated in vitro (RTS E. coli); also called gs-2 fragment of mANGPTL4
T2 chain: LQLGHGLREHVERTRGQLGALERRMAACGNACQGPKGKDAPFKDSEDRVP
The experiment can be described thus: Western blot of in vitro translated fragments. Here is the method: as §1, §2

Experiment [1] has as its target T3, full-length human ANGPTL4 (human, UniProt Q9BY76 26-406).
T3 construct: also called hANGPTL4
T3 sequence: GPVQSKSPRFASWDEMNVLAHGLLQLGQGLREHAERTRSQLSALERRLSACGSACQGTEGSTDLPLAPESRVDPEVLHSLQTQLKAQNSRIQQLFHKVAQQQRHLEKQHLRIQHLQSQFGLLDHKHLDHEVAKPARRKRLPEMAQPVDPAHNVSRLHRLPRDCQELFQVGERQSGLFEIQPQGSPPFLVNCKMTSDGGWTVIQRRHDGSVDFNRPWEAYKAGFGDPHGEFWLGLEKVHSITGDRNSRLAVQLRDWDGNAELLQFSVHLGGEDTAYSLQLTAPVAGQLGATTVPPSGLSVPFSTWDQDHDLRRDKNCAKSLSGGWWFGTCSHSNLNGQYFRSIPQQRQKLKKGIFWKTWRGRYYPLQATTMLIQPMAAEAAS
The experiment in a line: hybridoma screening ELISA, coated antigen 0.25 ug/ml. For orientation: ELISA stands for enzyme-linked immunosorbent assay.

The target in another experiment is T4, N-hANGPTL4 (human).
T4 construct: E. coli construct
T4 chain: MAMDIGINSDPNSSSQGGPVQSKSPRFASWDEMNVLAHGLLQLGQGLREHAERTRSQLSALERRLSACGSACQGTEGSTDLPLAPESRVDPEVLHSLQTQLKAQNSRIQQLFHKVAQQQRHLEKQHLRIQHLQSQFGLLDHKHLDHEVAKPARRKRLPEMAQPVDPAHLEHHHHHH
The experiment can be described thus: ELISA, coated antigen 0.25 ug/ml, antibody 0 to 10 ug/ml. As to the method: (§3) Antibodies were screened for binding to mouse ANGPTL4 using ELISA. Ninety-six well Nunc Maxi-Sorp ImmunoPlates™ (Nunc #446612, Roskilde, Denmark) were coated by adding 50 μl per well of a 2.5 μg/ml solution of ANGPTL4 in coating buffer (BupH™ Carbonate-Bicarbonate Buffer, Pierce #28382, Rockford, Ill.) overnight at 4° C. Coating buffer was removed and the plate was blocked by adding 250 μl per well of blocking buffer (1% Blocker™ BSA, Pierce #37525, in PBS) for two hours at room temperature. 50 μl of hybridoma supernatant (undiluted or diluted in blocking buffer) or isolated anti-ANGPTL4 antibody (undiluted or diluted in blocking buffer) were added to the wells and incubated for at least one hour at room temperature. Wells were washed four times with PBS/Tween 20. 100 μl of diluted (1:5,000 to 1:10,000) HRP-conjugated goat anti-mouse IgG (Pierce #31446) were added to the wells and incubated for one hour at 37° C. Wells were washed six times with PBS/Tween 20. Anti-ANGPTL4 antibody was detected by adding 50 μl of TMB (tetramethyl benzidine) solution (ImmunoPure® TMB Substrate Kit, Pierce #34021) to the wells for 5 to 10 minutes. Plates were read spectrophotometrically at 450 nm using a microplate reader (Molecular Devices, Sunnyvale, Calif.).
(§4) The binding affinity of antibodies 90B4, 15F2, and 14D12 were determined for each of N-mANGPTL4 and N-hANGPTL4 by ELISA. N-hANGPTL4 was expressed and purified from bacteria as described above for N-mANGPTL4 in Example Q. A polynucleotide sequence encoding amino acids 24 to 175 of human ANGPTL4 was cloned into expression vector pET22b(+), which encodes an N-terminal pelB leader sequence and a C-terminal His tag. Following translation of the protein and removal of all but 11 amino acids of the pelB sequence, N-hANGPTL4 has the sequence shown in SEQ ID NO: 11. That sequence contains 11 amino acids from the pelB sequence, followed by amino acids 24 to 175 of human ANGPTL4 (underlined in Table 6), followed by a 2 amino acid linker and the His tag. ELISAs were performed as discussed above in Example K, except the plates were coated with 50 μl of 0.25 μg/ml of protein (N-mANGPTL4 or N-hANGPTL4) per well. Binding was measured at 0 μg/ml, 0.08 μg/ml, 0.4 μg/ml, 2 μg/ml, and 10 μg/ml antibody.

The target of the next experiment is T5, N-mANGPTL4 (mouse).
T5 construct: E. coli construct; also called portion of the amino terminal domain of mouse ANGPTL4
T5 chain: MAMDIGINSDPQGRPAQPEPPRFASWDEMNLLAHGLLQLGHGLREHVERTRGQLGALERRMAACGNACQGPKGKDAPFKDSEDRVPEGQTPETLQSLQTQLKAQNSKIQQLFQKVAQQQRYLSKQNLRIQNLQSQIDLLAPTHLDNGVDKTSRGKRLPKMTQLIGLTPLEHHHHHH
Described as above. Here is the method: as §3, §4

The target of the next experiment is T6, bovine LPL (bovine, UniProt P11151 29-478).
T6 sequence (looked up): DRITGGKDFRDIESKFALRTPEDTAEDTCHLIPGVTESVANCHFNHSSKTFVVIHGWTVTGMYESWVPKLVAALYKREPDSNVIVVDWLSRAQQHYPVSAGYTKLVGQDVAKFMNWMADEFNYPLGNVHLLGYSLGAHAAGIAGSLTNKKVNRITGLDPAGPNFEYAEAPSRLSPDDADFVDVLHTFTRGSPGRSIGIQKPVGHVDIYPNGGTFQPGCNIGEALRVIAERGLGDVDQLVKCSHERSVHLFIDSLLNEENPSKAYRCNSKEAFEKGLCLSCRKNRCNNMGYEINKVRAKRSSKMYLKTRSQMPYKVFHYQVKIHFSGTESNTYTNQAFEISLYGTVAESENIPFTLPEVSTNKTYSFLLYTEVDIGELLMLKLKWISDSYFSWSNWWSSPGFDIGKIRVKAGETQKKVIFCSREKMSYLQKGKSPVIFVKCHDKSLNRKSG
The experiment can be described thus: cell-based or functional assay.

A further experiment has as its target T7, His-SUMO-gs1 (mouse, UniProt Q6TMA8 24-73 (rat entry)).
T7 construct: Translated in vitro (RTS E. coli); also called gs-1 fragment of mANGPTL4
T7 chain: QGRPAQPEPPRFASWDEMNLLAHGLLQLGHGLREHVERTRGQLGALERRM
The experiment in a line: Western blot of in vitro translated fragments. As to the method:
as §1, §2

The next experiment concerns the target T8, His-SUMO-gs3 (mouse, UniProt Q9Z1P8 74-123).
T8 construct: Translated in vitro (RTS E. coli); also called gs-3 fragment of mANGPTL4
T8 chain: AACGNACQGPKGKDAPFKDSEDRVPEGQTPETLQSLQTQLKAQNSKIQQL
The experiment can be described thus: Western blot of in vitro translated fragments. As to the method: as §1, §2

The target of a further experiment is T9, His-SUMO-gs5 (mouse, UniProt Q9Z1P8 124-180).
T9 construct: Translated in vitro (RTS E. coli); also called gs5 fragment of mANGPTL4
T9 sequence: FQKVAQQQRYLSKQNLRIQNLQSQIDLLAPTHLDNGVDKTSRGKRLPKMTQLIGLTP
The experiment can be described thus: Western blot of in vitro translated fragments. Here is the method:
as §1, §2

B1: monoclonal antibody 90B4 (antibody, V domains shown)
VH: EVQLQQSGPELMKPGASVKMSCRTSGYTFTDYSIHWVKQSHGKRLEWIGYINPYNGDTYCDQNFKGKATLTFNKASSTAYMEIPRLTSDDSAVYYCTRWKTIQAPFAYWGQGTLVTVSA
VL: EIQMTQSPSSMSASLGDRITITCQATQDIVKNLNWYQQKPGKPPSFLIHYATELAEGVPSRFSGSGSGSDYSLTISNLESEDFADYYCLQSYDFPYTFGGGTKLEIN
As for B1, the binding result (in the experiment with His-SUMO-gs4; with His-SUMO-gs2; in [1]; in the experiment with N-hANGPTL4; in the experiment with N-mANGPTL4) was “binds” each time.

B2: full-length mouse ANGPTL4 (ligand)
chain: QGRPAQPEPPRFASWDEMNLLAHGLLQLGHGLREHVERTRGQLGALERRMAACGNACQGPKGKDAPFKDSEDRVPEGQTPETLQSLQTQLKAQNSKIQQLFQKVAQQQRYLSKQNLRIQNLQSQIDLLAPTHLDNGVDKTSRGKKLSKMTQLIGLTSNATHLHRPARDCQELFQEGERHSGLFQIQPLGSPPFLVNCEMTSDGGWTVIQRRLNGSVDFNQSWEAYKDGFGDPQGEFWLGLEKMHSITGDRGSQLAVQLQDWDGNAKLLQFPIHLGGEDTAYSLQLTEPTANELGATNVSPNGLSLPFSTWDQDHDLRGDLNCAKSLSGGWWFGTCSHSNLNGQYFHSIPRQRQERKKGIFWKTWKGRYYPLQATTLLIQPMEATAAS
B2: the “IC50 (concentration required for 50% inhibition) of LPL activity, release of 3H-oleic acid” value in the experiment with bovine LPL was about 25 nM.

B3: monoclonal antibody 15F2 (antibody, V domains shown)
VH: EVKLVESGGGLVKPGGSLKLSCAASGFAFSRYDMSWVRQTPEKRLEWVATISTDGSYTYYPDSVKGRFTISRDNARNTLYLQMGSLRSEDTALYFCVRHEQSTIVPHYPLDYWGQGTSVTVSS
VL: EIQMTQSPSSMSASLGDRITITCQATQDIVKNLNWYQQKPGKPPSFLIHYATELAEGVPSRFSGSGSGSDYSLTISNLESEDFADYYCLQSYDFPYTFGGGTKLEINR
B3: the binding result with His-SUMO-gs1, in the experiment with N-hANGPTL4 and in the experiment with N-mANGPTL4 was “binds” each time.

B4: monoclonal antibody 14D12 (antibody, V domains shown)
VH: EVKLVESGGGLVKPGGSLKLSCAASGFAFSRYDMSWVRQTPEKRLEWVATISTGGSYTYYPDSVKGRFTISRDNARNTLYLQMGSLRSEDTALYFCVRHEQSTVVPHYPLDYWGQGTSVTVSS
VL: DIVMTQSPATLSVTPGDRVSLSCRASQSIGDYLHWYQQKSHESPRLLIKYASQSISGIPSRFSGSGSGSDFTLSIDSVEPEDVGVYYCQNGHSFPFTFGSGTKLEIKR
Take B4: the binding result is recorded as “no binding” with His-SUMO-gs4; “no binding” with His-SUMO-gs3; “no binding” with His-SUMO-gs2; “no binding” in the experiment with His-SUMO-gs1; “no binding” in the experiment with His-SUMO-gs5; “binds” with N-hANGPTL4. Further, the binding result in the experiment with N-mANGPTL4 was “binds”.
